Columns and labels:
[1] = system: dissociated rat P5-9 CGN cultures; assay: Cerebellar granule neuron (CGN) neurite outgrowth assay; type: cell-based; conditions: P7 rat CGNs
Procedure: Nitric acid-treated, 15-mm round German glass coverslips are coated with P-Orn in pH 6-8.5 borate buffer (at approximately 50 μg/ml) for about 1 hr at 37° C. and 5% CO2. CSPGs (at approximately 1 μg/ml) or polysaccharides enriched in the CS-A, CS-C, or CS-E sulfation motifs (at approximately 1 μg/ml) are coated on the P-Orn-coated coverslips overnight at 37° C. and 5% CO2. Cerebella from P5-9 Sprague Dawley rats are dissected, purified as described above, and cultured on the coated coverslips at a cell density of about 200 cells/mm^2. Neurons are grown in DMEM/F12, 1% FBS, and N1 supplement for about 24 hr.
In one example, inhibitors against MEK (PD98059, 25 μM; Calbiochem), EGFR (AG1478, 15 nM; Calbiochem), ROCK (Y27632, 5 μM; Calbiochem) and JNK (JNK Inhibitor II, 10 μM; Calbiochem) are added in solution at the start of culturing, and neurons are grown for 24 hr. For neurite outgrowth experiments from p75 knockout mice, cerebella from P5-7 mice, either C57BL/6 wild-type or p75−/− knockout mice, are dissected and purified as described above. Neurons are plated at a density of 200-300 cells/mm2 and cultured for about 24 hr. Cells are then fixed in 4% PFA/10% sucrose, immunostained with neuronal specific anti-class III β-tubulin antibody (TUJ1; Covance), and evaluated for neurite outgrowth. Neurons are imaged using a Nikon TE2000-S fluorescent microscope and quantified using the NIH software Image J. Statistical analysis is performed using the one-way ANOVA; n=50-200 cells per experiment.
P7 rat CGNs are grown for 24 hours on CS-E (1 μg/ml) in the presence of the CS-E antibody (CS-E Ab; 10 μg/ml).

[2] = system: Retinal ganglion cell axons; assay: Optic nerve regeneration assay; conditions: counted at 125-μm intervals from the crush site
Procedure: At 1-14 days post injury, mice are given an overdose of pentobarbital and are transcardially perfused with 4% PFA. Eyeballs still attached with the optic nerve are dissected and post-fixed in 4% PFA overnight. Following cryoprotection with 30% sucrose in PBS, tissues are embedded in O.C.T. and serial sectioned for 5-20 μm along the longitudinal direction of the nerve. For immunofluorescence labeling, the sections are washed with PBS, pre-incubated in a blocking buffer (approximately 1% BSA, 0.3%TX-100 in PBS) and followed by sequential incubations with primary antibodies, including mouse anti-CS-E (1:200), goat-anti-CTB (1:4000), or rabbit anti-IβIII-tubulin antibodies (Invitrogen). […] The retinal cryosections are mounted with Vectashield and visualized under a Nikon fluorescence microscope. To quantify the number of CTB-positive regenerating axons, the number of regenerating axons is counted at 125 μm stepwise from the crush site of the optic nerve. The total number of regenerating axons is estimated. To quantify the number of surviving retinal ganglion cells, the total number of βIII-tubulin positive cells is counted in at least 3 retinal sections per retina.
(1.7 mg/ml) antibody treatment placed around the crush site of the nerve are studied. […] The extent of axonal regrowth is assessed 2 weeks after injury.

[3] = Pull-down with biotinylated CS-E; type: binding; conditions: COS-7 cell lysates, immunoblot
Excerpt: Pull down assays can be useful for identifying proteins which bind to CS (e.g. CS-A, CS-C, or CS-E). Pull down assays can also be used for identifying agents that disrupt the binding between CS and a known binding partner. Full-length human p75 cDNA (amino acids 1-427; Open Biosystems) is ligated into a pcDNA3 vector (Invitrogen), modified to fuse an HA tag to the 5′ end of the insert. Human NgR (amino acids 27-473; imaGenes) is ligated into a modified pAPtag-5 vector (GenHunter) which fuses a secretion signal sequence and a c-myc tag to the 3′ end of the insert. COS-7 cells are transfected with either NgR-myc, p75-HA, or both using the Lipofectamine (Invitrogen) method. Cells are lysed about 2 days after transfection with 0.5-2% Triton X-100 in PBS containing a protease inhibitor mixture (Roche) by rocking for 15-90 min at 4° C. The lysates are clarified by centrifugation at 5-25,000 rpm for 1-30 min.
Biotin is attached to the free amino group of the residual core peptides of CS-C and CS-E polysaccharides (Seikagaku). […]
Biotinylated CS-C or CS-E (approximately 280 μg each) in 100-500 μl of PBS is added to streptavidin agarose resin (about 140 μl; Pierce) and incubated at room temperature for about 1 hr. […] NgR-myc and p75-HA are detected by immunoblotting with myc-tag (Cell Signaling) or HA-tag (Sigma) antibodies.

[4] = Oligosaccharide microarray; type: binding
Procedure: Ozonolysis of the anomeric allyl group and linkage of CS compounds 1-41,2 to 1,2-(bisaminooxy)ethane3 proceeds as follows: oligosaccharide (0.51 μmol) is dissolved in MeOH (500 μL) and cooled to −78° C. O3 is bubbled through the reaction until a blue color persists (1 min). The reaction is then purged with N2 until colorless, quenched with Ph3P beads (3 mg), and gradually warmed to rt over 12 h. The reaction is filtered and the product concentrated to afford the desired aldehyde as a white solid. The aldehyde (0.51 μmol) is then reacted for 14 h at rt with 1,2-(bisaminooxy)ethane hydrochloride (1.4 mg, 15 μmol) that has been dissolved in H2O (100 μL) and pH adjusted to 5.0 with 1 M NaOH. The resulting oxime product is purified using a SepPak C18 column (500 mg, H2O) and Sephadex G-10 (CS-E disaccharide, H2O) or Sephadex G-25 (tetrasaccharides, H2O) to afford a white solid in quantitative yield (0.51 μmol). CS-A aminooxy: ESI MS: m/z: calculated for C32H48N4Na3O31S2: 1117.1; found 1117.0. CS-C aminooxy: ESI MS: m/z: calculated for C32H48N4Na3O31S2: 1117.1; found 1117.0. CS-E aminooxy: ESI MS: m/z: calculated for C32H46N4Na5O37S4: 1321.0; found 1321.0. CS-E di amminooxy: ESI MS: m/z: calculated for C18H28N3Na2O20S2: 716.1; found 716.0. […]

Molecule: chondroitinaseABC
- inhibition of neurite outgrowth after digestion of CS-E polysaccharides [1]: small extent of residual inhibition
- number of regenerating axons compared with control IgG [2]: significantly more regenerating axons

B1: myc-NgR1: full-length myc-tagged human NgR expressed in COS-7 cells (protein, UniProt Q9BZR6 1-473, looked up)
chain: MKRASAGGSRLLAWVLWLQAWQVAAPCPGACVCYNEPKVTTSCPQQGLQAVPVGIPAASQRIFLHGNRISHVPAASFRACRNLTILWLHSNVLARIDAAAFTGLALLEQLDLSDNAQLRSVDPATFHGLGRLHTLHLDRCGLQELGPGLFRGLAALQYLYLQDNALQALPDDTFRDLGNLTHLFLHGNRISSVPERAFRGLHSLDRLLLHQNRVAHVHPHAFRDLGRLMTLYLFANNLSALPTEALAPLRALQYLRLNDNPWVCDCRARPLWAWLQKFRGSSSEVPCSLPQRLAGRDLKRLAANDLQGCAVATGPYHPIWTGRATDEEPLGLPKCCQPDAADKASVLEPGRPASAGNALKGRVPPGDSPPGNGSGPRHINDSPFGTLPGSAEPPLTAVRPEGSEPPGFPTSGPRRRPGCSRKNRTRSHCRLGQAGSGGGGTGDSEGSGALPSLTCSLTPLGLALVLWTVLGPC
modifications: full-length myc tag
notes: full-length myc-tagged human NgR expressed in COS-7 cells
- pull-down by CS-E [3]: Pull-down of full-length, native NgR by CS-E

B2: OMgp: oligodendrocyte myelin protein (OMgp) (protein, UniProt P23515 25-417, looked up)
Oligodendrocyte-myelin …: ICPLQCICTERHRHVDCSGRNLSTLPSGLQENIIHLNLSYNHFTDLHNQLTQYTNLRTLDISNNRLESLPAHLPRSLWNMSAANNNIKLLDKSDTAYQWNLKYLDVSKNMLEKVVLIKNTLRSLEVLNLSSNKLWTVPTNMPSKLHIVDLSNNSLTQILPGTLINLTNLTHLYLHNNKFTFIPDQSFDQLFQLQEITLYNNRWSCDHKQNITYLLKWMMETKAHVIGTPCSTQISSLKEHNMYPTPSGFTSSLFTVSGMQTVDTINSLSVVTQPKVTKIPKQYRTKETTFGATLSKDTTFTSTDKAFVPYPEDTSTETINSHEAAAATLTIHLQDGMVTNTSLTSSTKSSPTPMTLSITSGMPNNFSEMPQQSTTLNLWREETTTNVKTPLPS
- binding to CS-E polysaccharides, oligosaccharide microarray [4]: bind to CS-E polysaccharides

B3: Full-length EphB3: full-length Ephrin receptor B3 (protein, UniProt P54753 1-998, looked up)
chain: MARARPPPPPSPPPGLLPLLPPLLLLPLLLLPAGCRALEETLMDTKWVTSELAWTSHPESGWEEVSGYDEAMNPIRTYQVCNVRESSQNNWLRTGFIWRRDVQRVYVELKFTVRDCNSIPNIPGSCKETFNLFYYEADSDVASASSPFWMENPYVKVDTIAPDESFSRLDAGRVNTKVRSFGPLSKAGFYLAFQDQGACMSLISVRAFYKKCASTTAGFALFPETLTGAEPTSLVIAPGTCIPNAVEVSVPLKLYCNGDGEWMVPVGACTCATGHEPAAKESQCRPCPPGSYKAKQGEGPCLPCPPNSRTTSPAASICTCHNNFYRADSDSADSACTTVPSPPRGVISNVNETSLILEWSEPRDLGGRDDLLYNVICKKCHGAGGASACSRCDDNVEFVPRQLGLTERRVHISHLLAHTRYTFEVQAVNGVSGKSPLPPRYAAVNITTNQAAPSEVPTLRLHSSSGSSLTLSWAPPERPNGVILDYEMKYFEKSEGIASTVTSQMNSVQLDGLRPDARYVVQVRARTVAGYGQYSRPAEFETTSERGSGAQQLQEQLPLIVGSATAGLVFVVAVVVIAIVCLRKQRHGSDSEYTEKLQQYIAPGMKVYIDPFTYEDPNEAVREFAKEIDVSCVKIEEVIGAGEFGEVCRGRLKQPGRREVFVAIKTLKVGYTERQRRDFLSEASIMGQFDHPNIIRLEGVVTKSRPVMILTEFMENCALDSFLRLNDGQFTVIQLVGMLRGIAAGMKYLSEMNYVHRDLAARNILVNSNLVCKVSDFGLSRFLEDDPSDPTYTSSLGGKIPIRWTAPEAIAYRKFTSASDVWSYGIVMWEVMSYGERPYWDMSNQDVINAVEQDYRLPPPMDCPTALHQLMLDCWVRDRNLRPKFSQIVNTLDKLIRNAASLKVIASAQSGMSQPLLDRTVPDYTTFTTVGDWLDAIKMGRYKESFVSAGFASFDLVAQMTAEDLLRIGVTLAGHQKKILSSIQDMRLQMNQTLPVQV
modifications: full-length
notes: full-length Ephrin receptor B3
- pull-down by CS-E [3]: is pulled down
